The values that follow come from publication PMC3131183.

Assay in all cases: FRET or BRET
Test [1] has as its target Gγ subunit (human (endogenous in PMNs)) (UniProt P59768).
The target of test [2] is Hck (haemopoietic cell kinase) (human (endogenous in PMNs)) (UniProt P08631).
Test [3] addresses β-arrestin-1 (human (endogenous in PMNs)) (UniProt P49407).
Sequence of UniProt P49407 (P49407 whole entry): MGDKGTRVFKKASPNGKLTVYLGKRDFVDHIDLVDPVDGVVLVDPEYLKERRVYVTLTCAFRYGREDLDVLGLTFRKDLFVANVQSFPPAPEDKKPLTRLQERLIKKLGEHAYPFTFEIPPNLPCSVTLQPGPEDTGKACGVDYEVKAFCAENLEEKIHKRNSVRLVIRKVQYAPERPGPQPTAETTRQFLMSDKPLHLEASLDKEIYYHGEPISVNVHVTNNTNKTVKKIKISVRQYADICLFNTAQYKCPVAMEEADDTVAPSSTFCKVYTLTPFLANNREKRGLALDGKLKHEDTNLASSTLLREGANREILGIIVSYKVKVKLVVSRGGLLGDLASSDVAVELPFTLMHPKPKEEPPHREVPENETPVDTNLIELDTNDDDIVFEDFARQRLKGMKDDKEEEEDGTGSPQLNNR

Sequence of UniProt P08631 (P08631 whole entry): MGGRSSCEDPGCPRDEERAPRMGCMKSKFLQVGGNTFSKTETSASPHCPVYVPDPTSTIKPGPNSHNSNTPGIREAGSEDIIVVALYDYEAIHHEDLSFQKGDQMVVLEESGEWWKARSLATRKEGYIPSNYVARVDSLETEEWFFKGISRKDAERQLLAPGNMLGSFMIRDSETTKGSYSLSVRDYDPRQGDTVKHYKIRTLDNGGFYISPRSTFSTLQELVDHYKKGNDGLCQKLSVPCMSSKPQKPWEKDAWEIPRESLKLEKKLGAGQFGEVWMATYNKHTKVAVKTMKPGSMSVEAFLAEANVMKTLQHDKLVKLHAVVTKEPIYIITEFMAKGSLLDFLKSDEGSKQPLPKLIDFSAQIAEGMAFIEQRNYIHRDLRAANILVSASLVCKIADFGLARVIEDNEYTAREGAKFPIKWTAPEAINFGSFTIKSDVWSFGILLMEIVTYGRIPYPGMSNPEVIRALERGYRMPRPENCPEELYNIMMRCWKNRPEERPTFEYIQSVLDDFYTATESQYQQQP

Consider “Gβ subunit (from UniProt P62873 1-340) (natural protein)”, for which the FRET efficiency in test [1] was 58%; in test [2] it was 54%.
The substance “clathrin heavy chain (from UniProt Q00610 1-1675) (natural protein)” registered an FRET efficiency in test [3] of 38%.
